Test [1] addresses T1, ORF0657n [255-342] (CNBr fragment of ORF0657t, SDS PAGE band 10) (S. aureus, UniProt A5IS15 255-342).
T1 construct: Limits as printed; also called 10 kDa band
T1 sequence: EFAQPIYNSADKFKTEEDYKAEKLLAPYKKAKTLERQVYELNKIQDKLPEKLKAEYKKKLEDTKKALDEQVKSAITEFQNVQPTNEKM
As to the kind of experiment: Western blot of CNBr fragments of ORF0657t, column Western negative, band 10. A general note: Immunoblotting shows a protein as a band on a membrane.

The target in test [2] is T2, ORF0657n [397-486] (CNBr fragment of ORF0657t, SDS PAGE band 10) (S. aureus, UniProt A5IS15 397-486).
T2 construct: Limits as printed; also called 10 kDa band
The test is described as above.

Test [3] addresses T3, ORF0657n [42-254] (CNBr fragment of ORF0657t, SDS PAGE band 7) (S. aureus, UniProt A5IS15 42-254).
T3 construct: also called 26 kDa band
T3 sequence: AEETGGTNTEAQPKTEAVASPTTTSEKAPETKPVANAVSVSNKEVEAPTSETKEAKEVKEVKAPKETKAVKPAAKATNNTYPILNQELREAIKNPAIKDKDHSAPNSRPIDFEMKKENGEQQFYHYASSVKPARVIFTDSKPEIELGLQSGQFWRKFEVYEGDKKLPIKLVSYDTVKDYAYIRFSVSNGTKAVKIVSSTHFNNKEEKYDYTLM
As to the kind of experiment: Western blot of CNBr fragments of ORF0657t, column Western negative, band 7.

The target in test [4] is T4, ORF0657n [255-486] (CNBr fragment of ORF0657t, SDS PAGE band 7) (S. aureus, UniProt A5IS15 255-486).
T4 construct: also called 26 kDa band
The description is as above.

Test [5] deals with T5, ORF0657n [255-375] (CNBr fragment of ORF0657t, SDS PAGE band 9) (S. aureus, UniProt A5IS15 255-375).
T5 construct: Limits as printed; also called 13 kDa band
As to the kind of experiment: Western blot of CNBr fragments of ORF0657t, column Western negative, band 9.

The target of test [6] is T6, ORF0657n [375-486] (CNBr fragment of ORF0657t, SDS PAGE band 9) (S. aureus, UniProt A5IS15 375-486).
T6 construct: Limits as printed; also called 13 kDa band
The test is described as above.

The target of test [7] is T7, ORF0657n [254-384] (CNBr fragment of ORF0657t, SDS PAGE band 8) (S. aureus, UniProt A5IS15 254-384).
T7 construct: Limits as printed; also called 16 kDa band
As to the kind of experiment: Western blot of CNBr fragments of ORF0657t, column Western negative, band 8.

The target of test [8] is T8, ORF0657n [343-486] (CNBr fragment of ORF0657t, SDS PAGE band 8) (S. aureus, UniProt A5IS15 343-486).
T8 construct: Limits as printed; also called 16 kDa band
The test is described as above.

Test [9] deals with T9, ORF0657n [254-396] (CNBr fragment of ORF0657t, SDS PAGE band 8) (S. aureus, UniProt A5IS15 254-396).
T9 construct: Limits as printed; also called 16 kDa band
The test is described as above.

Test [10] deals with ORF0657n on the cell surface of S. aureus (S. aureus, UniProt A5IS15 41-613). As to the kind of experiment: cell-based or functional assay.
Test [11] has as its target T10, ORF0657n [156-254] (CNBr fragment of ORF0657t, SDS PAGE bands 9 and 10) (S. aureus, UniProt A5IS15 156-254).
T10 construct: Limits as printed; also called 13 kDa band; 10 kDa band
T10 sequence: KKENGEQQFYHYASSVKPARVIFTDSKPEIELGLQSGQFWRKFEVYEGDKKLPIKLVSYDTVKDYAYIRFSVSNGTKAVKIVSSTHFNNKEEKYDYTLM
As to the kind of experiment: Western blot of CNBr fragments of ORF0657t, column Western negative, bands 9 and 10.

Sequence of ORF0657n on the cell surface of S. aureus (A5IS15 41-613 limits assumed): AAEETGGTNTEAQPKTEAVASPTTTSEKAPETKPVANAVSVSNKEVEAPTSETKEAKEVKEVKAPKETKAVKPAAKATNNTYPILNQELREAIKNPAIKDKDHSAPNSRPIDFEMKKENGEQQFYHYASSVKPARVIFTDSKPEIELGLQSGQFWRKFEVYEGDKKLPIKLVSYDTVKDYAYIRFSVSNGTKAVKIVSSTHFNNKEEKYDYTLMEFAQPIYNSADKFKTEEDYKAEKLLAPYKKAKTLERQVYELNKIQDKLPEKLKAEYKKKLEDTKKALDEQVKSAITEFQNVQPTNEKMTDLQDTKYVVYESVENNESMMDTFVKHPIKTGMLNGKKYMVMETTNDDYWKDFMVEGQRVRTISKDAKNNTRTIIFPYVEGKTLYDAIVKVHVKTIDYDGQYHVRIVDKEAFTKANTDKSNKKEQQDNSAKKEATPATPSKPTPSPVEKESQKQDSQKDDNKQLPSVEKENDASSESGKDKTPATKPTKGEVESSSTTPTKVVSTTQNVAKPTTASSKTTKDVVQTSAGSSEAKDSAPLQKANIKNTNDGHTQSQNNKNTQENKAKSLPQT
T8 sequence (A5IS15 343-486): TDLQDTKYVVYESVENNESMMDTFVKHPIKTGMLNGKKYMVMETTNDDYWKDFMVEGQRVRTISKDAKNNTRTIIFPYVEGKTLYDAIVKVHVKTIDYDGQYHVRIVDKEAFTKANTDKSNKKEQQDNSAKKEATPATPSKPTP
T2 sequence (A5IS15 397-486): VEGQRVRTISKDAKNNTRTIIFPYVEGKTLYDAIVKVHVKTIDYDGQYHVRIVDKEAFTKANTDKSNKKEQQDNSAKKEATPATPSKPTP
T9 sequence (A5IS15 254-396): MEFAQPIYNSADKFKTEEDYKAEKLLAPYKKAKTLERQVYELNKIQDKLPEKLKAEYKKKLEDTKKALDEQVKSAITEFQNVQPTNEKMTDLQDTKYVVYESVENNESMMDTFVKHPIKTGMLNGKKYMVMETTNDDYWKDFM
T6 sequence (A5IS15 375-486): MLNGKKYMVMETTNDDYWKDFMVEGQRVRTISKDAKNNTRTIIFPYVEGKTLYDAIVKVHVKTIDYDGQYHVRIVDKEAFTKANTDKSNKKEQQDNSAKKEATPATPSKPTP
T7 sequence (A5IS15 254-384): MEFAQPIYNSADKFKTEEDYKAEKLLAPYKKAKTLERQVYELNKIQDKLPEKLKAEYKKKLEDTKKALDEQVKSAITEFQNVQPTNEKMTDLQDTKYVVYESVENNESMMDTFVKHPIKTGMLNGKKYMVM

B1: mAb CS-D7 (antibody, human IgG1, kappa, V domains shown)
VH: QVQLQESGPGLVKPSETLSLTCTVSGGSIRSSSYYWGWFRQTPGKGLEWLGNVFFSGSAYYNPSLKNRVTISIDTSENQSSLKLTSVTAADTAVYYCARPQAYSHDSSGHSPFDLWGRGTLVTVSS
VL: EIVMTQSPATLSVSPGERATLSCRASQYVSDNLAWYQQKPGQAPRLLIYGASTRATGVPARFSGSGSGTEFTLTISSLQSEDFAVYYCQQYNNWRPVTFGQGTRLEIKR
notes: also called D7 IgG; full length IgG CS-D7
As to B1, the binding result in test [1], in [2], in [3], in test [4], in test [5] and in [6] was “no binding” each time. In addition, the binding result in test [7], in [8], in [9] and in test [11] was “no binding” each time. Also, in test [10], the “EC50 (read off the curve)” value is about 0.02 ug mAb.

Source of the values: patent US20100166772A1 (published 2010).
